Source: patent US12427188B2, “Pyocyanine demethylases and related phenazine degrading agents compositions, methods and systems for interfering with viability of bacteria” (priority 2020, dated 2025)

Columns and labels:
[1] = tested on: P. aeruginosa strain PA14; test: PodA and tobramycin liquid (planktonic) synergy experiments; type: cell-based, Pseudomonas aeruginosa; conditions: LB; PodA10 5 μM; compared to individual antibiotic controls
Procedure: Pseudomonas aeruginosa PodA and tobramycin liquid synergy experiments. For planktonic synergy experiments, starter cultures were grown 24 h at 37° C. shaking in LB. Stationary phase cultures (usually between OD500 4-6) were aliquoted (100 μL) into 96-well clear bottom flat well plates (VWR). Antibiotics and PodA were diluted into stock concentrations to pipette 5 μL antibiotic and 2 μL PodA per well. Antibiotics were diluted into water and PodA was diluted into 50 mM HEPES (pH 7.5). Plates were incubated in a humidity Tupperware chamber lined with wet paper towel at 37° C. for 10 h. After incubation, wells were pipetted to resuspend, and each well was diluted 1:10 into fresh LB. From that mixture, 10 μL of diluted cells were pipetted into 90 μL fresh LB in 96-well flat bottom plates. Mineral Oil, light (65 μL undiluted, Sigma-Aldrich) was pipetted onto top of cultures to prevent dehydration and allow for oxygen diffusion. Microtiter plates were incubated at 37° C. inside a temperature-controlled chamber of a BioTek Synergy 4 plate reader. […] Cells from each 10 μL drips dilution were counted if colonies were between 10-100.
PodA10 and tobramycin cell treatments (same samples from FIG. 8) were diluted in series and dilutions were plated onto LB agar. Cells were counted if a dilution contained 10-100 colonies. […]

[2] = Activity after boiling (kinetic stability); type: physicochemical; conditions: after 30 and 60 min of boiling; PodA 3 μM, PYO 100 μM
Procedure: FIG. 13. Activity of WT PodA30-162 and PodA10 after boiling. Protein was boiled as described in Materials and Methods, followed by an activity assay with PodA (3 μM) and PYO (100 μM) in a Spectramax M3 plate reader monitoring PYO absorbance (690 nm) overtime. Specific activity (nmol min-1 mg-1) was calculated for each sample. Replicates of PodA^WT un-boiled were averaged and set to 100% activity (dashed line). All other activities of boiled samples were compared to this value and presented as a percentage. Data represent technical triplicates and error bars represent standard deviation. A t-test was completed, with * representing a p-value<0.05 and ns representing not significant.
Due to the high thermal stability of PodA, stability assays that rely on monitoring protein unfolding over a temperature gradient were not suitable for the related testing. Therefore the enzyme's kinetic stability were analyzed by boiling WT PodA41-162 and PodA10 and measuring activity of each protein after specified boiling times. […] We also noted that several designed mutations in PodA8 and PodA10 were not prevalent in a multiple-sequence alignment of PodA homologs (FIG. 14), indicating the importance of the atomistic calculations to design success

B1: PodA10: Designed PodA41-162 variant: A53N, I73T, A87V, M99V, A129T; SEQ ID NO: 4 (protein)
chain: MVTMTLDVKNDQVNKHDFGKPGMDVGDMDIFSDTLSVDGKQVGYDGGVCFFTNVTPDNPVTYCELTIHLDAGEIFARSLTPATLAPFTMTITGGTGEYANSKGELTVSGVATPDEKYELKLTK
cell viability (CFUs) [1]: did not increase cell death | Activity after boiling [2]: significantly higher activity compared to WT PodA30-162
